These results are taken from article PMC2730168 (Molecular cell, 2009).

Assay [1] addresses T1, Core RAG1 (384–1008) fused to MBP (MR1) (mouse, UniProt P15919 384-1008).
T1 sequence (looked up): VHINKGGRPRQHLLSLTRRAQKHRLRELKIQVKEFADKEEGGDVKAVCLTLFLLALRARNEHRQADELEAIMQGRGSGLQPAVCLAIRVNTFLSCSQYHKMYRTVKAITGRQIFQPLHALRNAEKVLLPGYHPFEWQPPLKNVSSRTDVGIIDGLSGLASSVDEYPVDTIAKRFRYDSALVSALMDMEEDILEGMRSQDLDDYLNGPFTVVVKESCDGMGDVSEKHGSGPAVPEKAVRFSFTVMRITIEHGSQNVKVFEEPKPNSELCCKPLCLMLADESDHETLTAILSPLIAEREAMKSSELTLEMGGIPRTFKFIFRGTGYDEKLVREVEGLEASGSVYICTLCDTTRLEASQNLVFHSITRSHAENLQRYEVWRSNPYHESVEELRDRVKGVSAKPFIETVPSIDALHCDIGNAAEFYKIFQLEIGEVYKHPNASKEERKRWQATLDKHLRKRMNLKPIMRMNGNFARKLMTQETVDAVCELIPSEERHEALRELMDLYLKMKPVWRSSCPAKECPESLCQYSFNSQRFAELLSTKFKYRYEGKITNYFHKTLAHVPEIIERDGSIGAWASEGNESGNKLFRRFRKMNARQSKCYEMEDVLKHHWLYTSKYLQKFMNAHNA
The experiment in a line: SEC.

In assay [2] the target is T2, Core RAG1 (384–1008) fused to MBP (MR1) (mouse), P15919.
T2 chain: T1 sequence (looked up)
The experiment in a line: SEC-MALS. The note with it: remark: other sources report otherwise. For orientation: Size exclusion chromatography separates by hydrodynamic size, large species first.

Usually stoichiometry N stands for a count of units in the complex or per binding partner.

B1: Core RAG2 fused to MBP with a PreScission protease site (LR2) (domain or fragment, mouse, UniProt P21784 1-387, looked up)
chain: MSLQMVTVGHNIALIQPGFSLMNFDGQVFFFGQKGWPKRSCPTGVFHFDIKQNHLKLKPAIFSKDSCYLPPLRYPATCSYKGSIDSDKHQYIIHGGKTPNNELSDKIYIMSVACKNNKKVTFRCTEKDLVGDVPEPRYGHSIDVVYSRGKSMGVLFGGRSYMPSTQRTTEKWNSVADCLPHVFLIDFEFGCATSYILPELQDGLSFHVSIARNDTVYILGGHSLASNIRPANLYRIRVDLPLGTPAVNCTVLPGGISVSSAILTQTNNDEFVIVGGYQLENQKRMVCSLVSLGDNTIEISEMETPDWTSDIKHSKIWFGSNMGNGTIFLGIPGDNKQAMSEAFYFYTLRCSEEDLSEDQKIVSNSQTSTEDPGDSTPFEDSEEFCFS
For the molecule B1, the “stoichiometry N” value in assay [1] was 1 RAG1:RAG2.

B2: HMGB1 (1–163) (domain or fragment, UniProt P09429 1-163, looked up)
chain: MGKGDPKKPRGKMSSYAFFVQTCREEHKKKHPDASVNFSEFSKKCSERWKTMSAKEKGKFEDMAKADKARYEREMKTYIPPKGETKKKFKDPNAPKRPPSAFFLFCSEYRPKIKGEHPGLSIGDVAKKLGEMWNNTAADDKQPYEKKAAKLKEKYEKDIAAYR
B2: the “stoichiometry N” value in assay [1] was roughly 0.5 per RAG1.

B3: Core RAG1 (384–1008) fused to MBP (MR1), P15919 384-1008 (domain or fragment)
chain: T1 sequence (looked up)
The molecule B3 gave a stoichiometry N in assay [2] of 2.
